One test deals with T1, recombinant HER-2 (UniProt P04626 23-652, limits assumed).
T1 construct: also called recombinant HER-2 protein; HER-2 (erbB-2)
Briefly: flow cytometry of engineered T cells stained with recombinant HER-2. The procedure: The chimeric receptors were detected by incubation with recombinant HER-2. The Anti-HER-2 DARPin Tri-TAC was expressed well on the surface of the engineered T cells. However, its maximal surface expression was lower compared to the Anti-HER-2 DARPin CAR construct. […] T cells were activated with anti-CD3/anti-CD28 Dynabeads and engineered with lentiviruses encoding the Tri-TAC, CAR or no receptor (control). After 2 weeks, the CAR and control cultures had grown to similar numbers while the Tri-TAC cultures grew slightly more slowly.

The target of a further test is β-Actin (UniProt P60709 1-375). Briefly: immunoprecipitation of the Tri-TAC with recombinant HER-2 beads from 293TM cells, Western blot. The procedure: (§1) FIG. 5 illustrates Lck interaction with the Tri-TAC. In FIG. 5A, 293TM cells were engineered to express Lck in combination with either the full-length Tri-TAC or a Tri-TAC variant that lacked the cytosolic domain that interacts with Lck. The Tri-TAC receptors were immunoprecipitated with beads carrying recombinant HER-2 protein. The precipitated Tri-TAC was measured by Western blot with an antibody against the myc tag. Co-precipitated Lck was identified by Western blot with an antibody against Lck. β-Actin was not pulled down and only detected in the supernatant (S). Both full length Tri-TAC and the Tri-TAC that lacked the cytosolic domain were efficiently pulled down and detected in the bound fraction (B). […] Greater amounts of Lck were co-immunopreciptated with the full-length Tri-TAC relative to the controls. […] Signal was corrected relative to the negative control.
A general note: Immunoblotting shows a protein as a band on a membrane.

In another test the target is T2, Lck (UniProt P06239 1-509, limits assumed).
T2 construct: also called protein kinase Lck
The test is described as follows: co-immunoprecipitation with recombinant HER-2 beads from 293TM cells, Western blot for Lck. The procedure:
as §1

T2 sequence (P06239 whole entry): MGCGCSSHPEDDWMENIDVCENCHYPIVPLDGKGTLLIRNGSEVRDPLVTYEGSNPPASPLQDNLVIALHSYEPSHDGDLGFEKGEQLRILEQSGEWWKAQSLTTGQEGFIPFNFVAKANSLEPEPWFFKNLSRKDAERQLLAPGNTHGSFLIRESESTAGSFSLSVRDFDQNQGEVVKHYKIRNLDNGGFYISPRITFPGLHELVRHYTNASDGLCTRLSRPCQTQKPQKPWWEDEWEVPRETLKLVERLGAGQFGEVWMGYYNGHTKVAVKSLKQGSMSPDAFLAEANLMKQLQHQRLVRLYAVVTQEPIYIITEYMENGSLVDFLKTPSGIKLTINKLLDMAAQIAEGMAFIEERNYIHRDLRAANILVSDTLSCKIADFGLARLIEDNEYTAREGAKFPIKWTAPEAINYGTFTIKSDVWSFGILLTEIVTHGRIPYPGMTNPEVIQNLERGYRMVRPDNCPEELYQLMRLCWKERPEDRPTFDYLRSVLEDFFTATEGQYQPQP

B1: Anti-HER-2 DARPin CAR (CD28-based CAR) (other)
chain: MSRGSDLGKKLLEAARAGQDDEVRILMANGADVNAKDEYGLTPLYLATAHGHLEIVEVLLKNGADVNAVDAIGFTPLHLAAFIGHLEIAEVLLKHGADVNAQDKFGKTAFDISIGNGNEDLAEILQKLN
notes: Expressed on the surface of engineered human T cells; also called conventional CAR with the same DARPin; anti-HER-2 DARPin CD28-based CAR; not shown: rest of the CD28-based CAR (hinge, transmembrane and signalling domains)
B1: the binding result with recombinant HER-2 is given as “binds”.

B2: Anti-HER-2 DARPin Tri-TAC (full-length Trifunctional T cell-antigen coupler, configuration 1) (other)
chain: MSRGSDLGKKLLEAARAGQDDEVRILMANGADVNAKDEYGLTPLYLATAHGHLEIVEVLLKNGADVNAVDAIGFTPLHLAAFIGHLEIAEVLLKHGADVNAQDKFGKTAFDISIGNGNEDLAEILQKLNEQKLISEEDLNPGGGGGSGGGGSGGGGSGGGGSGSMDIQMTQTTSSLSASLGDRVTISCRASQDIRNYLNWYQQKPDGTVKLLIYYTSRLHSGVPSKFSGSGSGTDYSLTISNLEQEDIATYFCQQGNTLPWTFAGGTKLEIKGGGGSGGGGSGGGGSGGGGSEVQLQQSGPELVKPGASMKISCKASGYSFTGYTMNWVKQSHGKNLEWMGLINPYKGVSTYNQKFKDKATLTVDKSSSTAYMELLSLTSEDSAVYYCARSGYYGDSDWYFDVWGQGTTLTVFSTSGGGGSLESGQVLLESNIKVLPTWSTPVQPMALIVLGGVAGLLLFIGLGIFFCVRCRHRRRQAERMSQIKRLLSEKKTCQCPHRFQKTCSPI
notes: also called N-Darpin Tri TAC; full length Tri-TAC
For B2, the binding result was “binds” with recombinant HER-2 and “no binding” in the test with β-Actin.

B3: Tri-TAC variant that lacked the cytosolic domain that interacts with Lck (other)
chain: MSRGSDLGKKLLEAARAGQDDEVRILMANGADVNAKDEYGLTPLYLATAHGHLEIVEVLLKNGADVNAVDAIGFTPLHLAAFIGHLEIAEVLLKHGADVNAQDKFGKTAFDISIGNGNEDLAEILQKLNEQKLISEEDLNPGGGGGSGGGGSGGGGSGGGGSGSMDIQMTQTTSSLSASLGDRVTISCRASQDIRNYLNWYQQKPDGTVKLLIYYTSRLHSGVPSKFSGSGSGTDYSLTISNLEQEDIATYFCQQGNTLPWTFAGGTKLEIKGGGGSGGGGSGGGGSGGGGSEVQLQQSGPELVKPGASMKISCKASGYSFTGYTMNWVKQSHGKNLEWMGLINPYKGVSTYNQKFKDKATLTVDKSSSTAYMELLSLTSEDSAVYYCARSGYYGDSDWYFDVWGQGTTLTVFSTSGGGGSLESGQVLLESNIKVLPTWSTPVQPMALIVLGGVAGLLLFIGLGIFF
notes: Expressed in 293TM cells; also called cytosolic deletion; TAC without cytosolic domain
On to B3, for which the binding result with Lck and with β-Actin was “no binding” each time.

Values taken from US20200392247A1 (MCMASTER UNIVERSITY, published 2020).
